Reference: publication PMC8886817

Tests used:
[1] = molecular target: Rabbit skeletal muscle actin (RMA), as actin filaments (F-actin) (rabbit) (UniProt P68135); assay: single-molecule microfluidics-assisted TIRF
[2] = molecular target: GST-549-SNAP-N-IQGAP1 (GST-SNAP-N-IQGAP1-6His, 1–522) (UniProt P46940); assay: single-molecule step photobleaching
[3] = molecular target: Rabbit skeletal muscle actin (RMA), as actin filaments (F-actin) (rabbit) (UniProt P68135); assay: open-flow TIRF microscopy of single filament growth

Substance | average dwell time on filament sides [1] | koff [1] | stoichiometry N [2] | average pause time [3]
GST-549-SNAP-N-IQGAP1 (GST-SNAP-N-IQGAP1-6His, 1–522) (from UniProt P46940 1-522) (domain or fragment) | 6.8 min | 0.0025 s⁻¹ | 2 | 
GST-C-IQGAP1 (675–1657) (from UniProt P46940 675-1657) (domain or fragment) |  |  |  | 14.7 s
